Reference: patent publication US20110135636A1 (SYMPHOGEN A S, published 2011)

Legend:
[1] = target: T1, recombinant human EGFR extracellular domain with 6xHis (human, UniProt P00533 25-645); assay: SPR competition, competitor 1254
T1 construct: In-house produced; also called 6xHis EGFR ECD; soluble human EGFR ECD; not shown: 6xHis tag
Method: (§1) SPR analysis was performed on a Biacore 3000 machine containing four flow cells. A CM5 Biacore chip was conjugated with 10,000 Resonance units (Ru) polyclonal anti-His antibody to flow cells 1-4 according to the manufacturer's instructions. […] Immediately after antigen injection the maximal binding of the Anti-EGFR mAb without competition was established in each flow cell during a reference run. Briefly 5 μl antibody at a concentration of 40 μg/ml was injected over all flow cells with captured EGFR followed by stripping of the antibody/antigen complex with a low pH acid wash (10 sec. contact time with 10 mM Glycine-HCl, pH2). After the determination of Anti-EGFR antibody maximal binding to each flow cell, a competition run was performed during the same Biacore cycle. Flow cells were first saturated with EGFR ECD antigen followed by injection of different reference antibodies or Anti-EGFR antibodies into separate flow cells using the same antigen saturating conditions as outlined above. This step was immediately followed by a second injection of Anti-EGFR antibody over the flow cell saturated with EGFR antigen and competition antibody to minimize the dissociation of either antigen or blocking antibody. Then the antibody/antigen complexes were stripped off with a low pH acid wash (10 sec. contact time with 10 mM Glycine-HCl, pH 2) and the whole cycle beginning with the reference run was repeated with a new Anti-EGFR antibody. The degree of inhibition of tested Anti-EGFR antibodies were determined by comparing the Ru max value of the individual Anti-EGFR antibody before and after competition by introduction of report points recorded two seconds before and after injection of each sample.

[2] = target: T1, recombinant human EGFR extracellular …; assay: SPR competition, competitor Vectibix
Method: as §1

[3] = target: T1, recombinant human EGFR extracellular …; assay: SPR competition, competitor 1261
Method: as §1

[4] = target: T1, recombinant human EGFR extracellular …; assay: SPR competition, competitor 1277
Method: as §1

[5] = target: T1, recombinant human EGFR extracellular …; assay: SPR competition, competitor 1030corr
Method: as §1

[6] = target: T1, recombinant human EGFR extracellular …; assay: SPR competition, competitor 1344
Method: as §1

[7] = target: T1, recombinant human EGFR extracellular …; assay: SPR competition, competitor Erbitux
Method: as §1

[8] = target: T1, recombinant human EGFR extracellular …; assay: SPR competition, competitor 992 corr
Method: as §1

[9] = target: T1, recombinant human EGFR extracellular …; assay: SPR competition, competitor Ab-11
Method: as §1

[10] = target: T1, recombinant human EGFR extracellular …; assay: SPR competition, competitor 1320
Method: as §1

[11] = target: T1, recombinant human EGFR extracellular …; assay: SPR competition, competitor 1024
Method: as §1

[12] = target: T1, recombinant human EGFR extracellular …; assay: SPR competition, competitor Vectibix; remark: listed apart in the source
Method: as §1

[13] = target: T1, recombinant human EGFR extracellular …; assay: SPR competition, competitor Ab-10
Method: as §1

[14] = target: T1, recombinant human EGFR extracellular …; assay: SPR competition, competitor 1257
Method: as §1

[15] = target: T1, recombinant human EGFR extracellular …; assay: SPR competition, competitor 1347
Method: as §1

[16] = target: T1, recombinant human EGFR extracellular …; assay: SPR competition, competitor ICR10
Method: as §1

[17] = target: T1, recombinant human EGFR extracellular …; assay: SPR competition, competitor Ab-3
Method: as §1

[18] = target: T1, recombinant human EGFR extracellular …; assay: SPR competition, competitor Erbitux; remark: listed apart in the source
Method: as §1

[19] = target: T1, recombinant human EGFR extracellular …; assay: SPR competition, competitor Ab-1
Method: as §1

[20] = target: T1, recombinant human EGFR extracellular …; assay: SPR competition, competitor 1260
Method: as §1

[21] = target: T1, recombinant human EGFR extracellular …; assay: SPR competition, competitor 1208
Method: as §1

[22] = target: T1, recombinant human EGFR extracellular …; assay: SPR competition, competitor Ab-5
Method: as §1

[23] = target: T1, recombinant human EGFR extracellular …; assay: SPR competition, competitor 1284
Method: as §1

B1: antibody 992 (antibody, human IgG1, kappa, V domains shown)
VH: EVQLQQPGSELVRPGASVKLSCKASGYTFTSYWMHWVKQRPGQGLEWIGNIYPGSRSTNYDEKFKSKATLTVDTSSSTAYMQLSSLTSEDSAVYYCTRNGDYYVSSGDAMDYWGQGTSVTVSS
VL: DIQMTQTTSSLSASLGDRVTISCRTSQDIGNYLNWYQQKPDGTVKLLIYYTSRLHSGVPSRFSGSGSGTDFSLTINNVEQEDVATYFCQHYNTVPPTFGGGTKLEIKR
notes: Chimeric mouse/human IgG1 kappa; the VL entry includes the human kappa constant region
- % inhibition [1]: 128%
- % inhibition [2]: 106%
- % inhibition [3]: -13%
- % inhibition [4]: 110%
- % inhibition [5]: -18%
- % inhibition [6]: 9%
- % inhibition [7]: 90%
- % inhibition [8]: 96%
- % inhibition [9]: -3%
- % inhibition [10]: -38%
- % inhibition [11]: -55%
- % inhibition [12]: 125%
- % inhibition [13]: -4%
- % inhibition [14]: 16%
- % inhibition [15]: 7%
- % inhibition [16]: -4%
- % inhibition [17]: 7%
- % inhibition [18]: 90%
- % inhibition [19]: 99%
- % inhibition [20]: -10%
- % inhibition [21]: 109%
- % inhibition [22]: 1%
- % inhibition [23]: 6%

B2: antibody 1208 (antibody, human IgG1, kappa, V domains shown)
VH: EVQLVESGGGLVKPGGSLKLSCAASGFAFSSYDMSWVRQTPEKRLEWVAYIGSGDDNTHYPDSVKGRFTISRHNAKNTLYLQMSSLKSEDTAMYYCARQKYGNYGDTMDYWGQGTSVTVSS
VL: DVVMTQTPLSLPVSLGDQASISCRSSQSLVHSNGNTYLHWYLQKPGQSPKLLIYKVSNRFSGVPDRFSGSGSGTDFTLKISRVEAEDLGVYFCSQSTHVPTFGGGTKLEIKR
notes: Chimeric IgG1 kappa; also called clone 1208
- % inhibition [1]: 33%
- % inhibition [2]: 29%
- % inhibition [3]: 13%
- % inhibition [4]: 40%
- % inhibition [5]: 27%
- % inhibition [6]: 7%
- % inhibition [7]: 18%
- % inhibition [8]: 100%
- % inhibition [9]: 4%
- % inhibition [10]: 30%
- % inhibition [11]: 3%
- % inhibition [12]: 25%
- % inhibition [13]: 32%
- % inhibition [14]: 9%
- % inhibition [15]: 4%
- % inhibition [16]: 5%
- % inhibition [17]: 5%
- % inhibition [18]: 18%
- % inhibition [19]: 37%
- % inhibition [20]: 4%
- % inhibition [21]: 78%
- % inhibition [22]: 66%
- % inhibition [23]: 4%

B3: antibody 1024 (antibody, human IgG1, kappa, V domains shown)
VH: QVQLQQPGAELVEPGGSVKLSCKASGYTFTSHWMHWVKQRPGQGLEWIGEINPSSGRNNYNEKFKSKATLTVDKSSSTAYMQFSSLTSEDSAVYYCVRYYGYDEAMDYWGQGTSVTVSS
VL: DIVMTQAAFSNPVTLGTSASISCRSSKSLLHSNGITYLYWYLQKPGQSPQLLIYQMSNLASGVPDRFSSSGSGTDFTLRISRVEAEDVGVYYCAQNLELPYTFGGGTKLEIKR
notes: Chimeric IgG1 kappa
- % inhibition [1]: 5%
- % inhibition [2]: 102%
- % inhibition [3]: -27%
- % inhibition [4]: -1%
- % inhibition [5]: 3%
- % inhibition [6]: 1%
- % inhibition [7]: 104%
- % inhibition [8]: -58%
- % inhibition [9]: -13%
- % inhibition [10]: 86%
- % inhibition [11]: 96%
- % inhibition [12]: 82%
- % inhibition [13]: -5%
- % inhibition [14]: 22%
- % inhibition [15]: 2%
- % inhibition [16]: -3%
- % inhibition [17]: 0%
- % inhibition [18]: 104%
- % inhibition [19]: 6%
- % inhibition [20]: 35%
- % inhibition [21]: -7%
- % inhibition [22]: 0%
- % inhibition [23]: -2%

B4: antibody 1030 (antibody, human IgG1, kappa, V domains shown)
VH: EVQLVESGGGLVKPGGSLKLSCAASGFTFSSYALSWVRQTPERRLEWVASISGVGSTYFPDSVKGRFTMSRDNARNILYLQMSSLRSEDTAMYYCARGSDGYFYAMDYWGQGTSVTVSS
VL: DIVLTQSPASLAVSLGQRATISCRASKSVSTSGYSFMHWYQLKPGQPPKLLIYLASNLESGVPARFSGSGSGTDFTLNIHPVEEEDAATYYCQHSREFPLTFGGGTKLEIKR
notes: Chimeric IgG1 kappa
- % inhibition [1]: 107%
- % inhibition [2]: 16%
- % inhibition [3]: 8%
- % inhibition [4]: 103%
- % inhibition [5]: 89%
- % inhibition [6]: 24%
- % inhibition [7]: -1%
- % inhibition [8]: -3%
- % inhibition [9]: -5%
- % inhibition [10]: 4%
- % inhibition [11]: -1%
- % inhibition [12]: 17%
- % inhibition [13]: 84%
- % inhibition [14]: 5%
- % inhibition [15]: 6%
- % inhibition [16]: 54%
- % inhibition [17]: 6%
- % inhibition [18]: -1%
- % inhibition [19]: 98%
- % inhibition [20]: 16%
- % inhibition [21]: 112%
- % inhibition [22]: 104%
- % inhibition [23]: 32%
